Positions count from the first letter of the chain named. Names may count otherwise.
T1: Pep-3, NH2-LEEKKGNYVVTDHG-OH (human)
T1 construct: MW 1590 Da; free peptide of the Biacore and KinExA experiments
T1 peptide: H-LEEKKGNYVVTDHG-OH

B1: antibody 139 (antibody, human IgG1, V domains shown)
VH: EVQVLESGGGLVQPGGSLRLSCAASGFTFSSYAMSWVRQAPGKGLEWVSAISGSGGSTNYADSVKGRFTISRDNSKNTLYLQMNSLRAEDTAVYYCAGSSGWSEYWGQGTLVTVSS
VL: DIQMTQSPSSLSASVGDRVTITCRASQGIRNNLAWYQQKPGKAPKRLIYAASNLQSGVPSRFTGSGSGTEFTLIVSSLQPEDFATYYCLQHHSYPLTSGGGTKVEIK
notes: Recombinant human IgG1 kappa; also called SC139
B2: antibody 250 (antibody, human IgG1, V domains shown)
VH: B1 VH with V2G, V4L, L11W, G16E, M83V, A88V
VL: DIQMTQSPSSLSASVGDSVTITCRTSQGIRKNLGWYQQKPGKAPKRLIYAASSLQSGVPSRFSGSGSGTEFTLTISRLQPEDFATYYCLQHHSYPLTFGGGTRVEIR
notes: Recombinant human IgG1 kappa; also called SC250; sc250
B3: antibody 13.1.2 (antibody, human IgG1, V domains shown)
VH: QVQLVESGGGVVQPGRSLRLSCAASGFTFSSYGMHWVRQAPGKGLEWVAVIWYDGSNKYYVDSVKGRFTISRDNSKNTLYLQMNSLRAEDTAVYYCARDGWQQLAPFDYWGQGTLVTVSS
VL: not shown
notes: Hybridoma derived fully human IgG1 kappa
B4: 13.1.2 variant L99T-5.3 (antibody, V domains shown)
VH: B3 VH
VL: not shown
notes: also called Leu99Thr; leu99Thr
B5: 13.1.2 variant L217Q-10.1 (antibody, V domains shown)
VH: B3 VH with L104Q
VL: not shown
notes: Position 217 of the joint numbering = residue 104 of the heavy chain variable region; also called Leu217Gln; 217Gln
B6: 13.1.2 variant L99N-4.1 (antibody, V domains shown)
VH: B3 VH
VL: not shown
notes: also called Leu99Asn; 99Asn
B7: 13.1.2 variant L217N-2.1 (antibody, V domains shown)
VH: B3 VH with L104N
VL: not shown
notes: Position 217 of the joint numbering = residue 104 of the heavy chain variable region (heavy chain starts at 114); also called Leu217Asn; 217Asn
B8: 13.1.2 variant N35G-3.1 (antibody, V domains shown)
VH: B3 VH
VL: DIVMTQTPLSSPVTLGQPASISCRSSQSLVHSDGGTYLSWLHQRPGQPPRLLIYKISNRFSGVPDRFSGSGAGTAFTLKISRVEAEDVGVYYCMQATQLPRTFGQGTKVEIKR
notes: also called Asn35Gly; 35Gly
B9: 13.1.2 variant Y172R-1.2 (antibody, V domains shown)
VH: B3 VH with Y59R
VL: not shown
notes: Position 172 of the joint numbering = residue 59 of the heavy chain variable region; also called Tyr172Arg; 172Arg
B10: 13.1.2 variant L99H-9.2 (antibody, V domains shown)
VH: B3 VH
VL: not shown
notes: also called Leu99His; 99His
B11: antibody 095 (antibody, human IgG1, V domains shown)
VH: QVQLQESGPFLVKPSQTLSLTCTVSGGSISSGGYYWSWIRQHPGKGLEWIGFIYYRGNTYYNPSLKSRVTISVDTSKNQFSLKLSSVTAADTAVYYCARDGYCSRTGCYGGWFDPWGQGTLVTVSP
VL: DIVMTQTPLSSPVTLGQPASISCRSSQSLIHTDGNIYLSWLQQRPGQPPRLLIYKISNRFSGVPDRFSGSGAGTDFTLKISRVEAEDVGVYYCMQGTQFPITFGQGTRLEIK
notes: Recombinant human IgG1 kappa; also called mAb 095; SC95
B12: antibody 131 (antibody, human IgG1, V domains shown)
VH: QVQLVESGGGVVQSGRSLRLSCAASGFTFRNYGMHWVRQAPGKGLEWVAVIWYDGSDKYYADSVRGRFTISRDNSKNTLYLQMNSLRAEDTAVYYCARDGYDILTGNPRDFDYWGQGTLVTVSS
VL: DTVMTQTPLSSHVTLGQPASISCRSSQSLVHSDGNTYLSWLQQRPGQPPRLLIYRISRRFSGVPDRFSGSGAGTDFTLEISRVEAEDVGVYYCMQSTHVPRTFGQGTKVEIK
notes: XenoMax derived; variable regions cloned into human IgG1 and IgK expression vectors; also called SC131
B13: antibody 211 (antibody, human IgG1, V domains shown)
VH: QVQLVESGGGVVQPGRSLRLSCVASGFTLSSYGMHWVRQAPGKGLEWVAVTSYDGSKKDYADSAKGRFTISRDNSKNTLYLQMNSLRAEDTAVYYCVSEGYCSSSSCYKYYYYGMDVWGQGTTVTVSS
VL: DIVMTQSPLSLPVTPGEPASISCRSSQSLLYRNGNNYLDWYLQRPGQSPQLLIYLGSNRASGVPDRFSGSGSGTDFTLKISRVEAEDVGVYYCMQALQTPRTFGQGTKVEIK
notes: Recombinant human IgG1 kappa; also called SC211; sc211

Tests used:
[1] = target: T2, EGFRvIII (type III deletion mutant of the epidermal growth factor receptor), expressed on cells (human, UniProt P00533 298-1210); experiment: FACS, NR6 M cells, 0.25 µg/ml mAb + Alexa anti-human IgG Fab, 37 C without glutathione
T2 construct: Also used for lysates of H1477 cells in Western blots; also called delta-EGFr; dEGFR
Protocol: XenoMax derived IgG1 recombinant antibodies were expressed, purified and quantitated as described previously. Antibodies were further assayed for their ability to internalize the EGFRvIII receptor in NR6 M cells. […] The cells were washed with cold 10% FCS in PBS and secondary antibody (SS Alexa antihuman IgG Fab) at 3 μg/ml Fab was added and incubated for 7 mins on ice. The cells were washed with cold 10% FCS in PBS once and then resuspended in cold media. Next, two sets of the triplicate were incubated at 37° C. and the remaining set was incubated at 4° C. for 1 hr. After that the cells incubated at 4° C. and one set of the cells incubated at 37° C. were treated with glutathione (as previously mentioned) for 1 hr on ice. Then the cells were washed and resuspended in 100 μl of cold 1% FCS in PBS and analyzed by FACS. The % internalization was calculated from the geometric mean obtained from the FACS analysis [(mean at 37° C. with glutathione—mean at 4° C. with glutathione)/(mean at 37° C. without glutathione—mean at 4° C. with glutathione)].

[2] = target: T1, Pep-3, NH2-LEEKKGNYVVTDHG-OH; experiment: logarithm of the measured Kd (Biacore, pep-3), listed beside simulated energies
[3] = target: T2, EGFRvIII (type III deletion mutant of …); experiment: FACS titration on NR6 cells expressing EGFRvIII, PE fluorescence intensity (geo mean)
[4] = target: T3, EGFRvIII-Rabbit Fc fusion protein (human; rabbit, UniProt P00533 298-645); experiment: ELISA, minilipofection supernatant titrated 1:2 on EGFRvIII-Rab Ig Fc fusion protein
T3 construct: whole entry named; also called EGFRvIII-RbFc; EGFRvIII-Rab Ig Fc fusion protein; not shown: Hinge-CH2-CH3 domain of rabbit IgG
Protocol: The secretion ELISA tests were performed as follows. […] The plates were washed five times with dH₂O. Recombinant antibodies were titrated 1:2 for 7 wells from the undiluted minilipofection supernatant. The plates were washed five times with dH₂O. A goat anti-human IgG Fc-specific HRP-conjugated antibody was added at a final concentration of 1 μg/mL for 1 hour at RT for the secretion plates and binding plates detected with 1 μg/ml Rb anti Hu Fc for 1 hour at room temperature. The plates were washed five times with dH₂O. The plates were developed with the addition of TMB for 30 minutes and the ELISA was stopped by the addition of 1 M phosphoric acid. Each ELISA plate was analyzed to determine the optical density of each well at 450 nm.

[5] = target: T1, Pep-3, NH2-LEEKKGNYVVTDHG-OH; experiment: pep3 KinExA
Protocol: All KinExA experiments were conducted at room temperature (˜23° C.). For all equilibrium experiments, antigen was serially diluted into solutions having a constant mAb binding site concentration. For the first 10 titration points the dilutions were 2-fold and the 11th and 12th serial dilutions were 10-fold. The sample flow rate for all experiments was 0.25 mL/min and the labeling antibody flow rate was 0.5 mL/min. […] A sample volume of 250 μL was analyzed for the antibody-controlled experiment. Two or three replicates of each sample were measured for all equilibrium experiments. The equilibrium titration data were fit in a dual curve analysis to a 1:1 binding model using KinExA software (Version 2.4, Sapidyne Instruments).

| Binder | FACS geometric mean [1] | Ln(Kd) [2] | further results |
| --- | --- | --- | --- |
| B1 | 22.6 | – | – |
| B2 | 24.1 | – | – |
| B3 | 22.1 | -16.3 | – |
| B4 | – | -16.5 | – |
| B5 | – | -16.2 | – |
| B6 | – | -13.5 | – |
| B7 | – | -15.5 | – |
| B8 | – | -15.4 | – |
| B9 | – | -13.9 | – |
| B10 | – | -14.7 | – |
| B11 | 22.6 | – | – |
| B12 | – | – | EC50 (read off the curve) [3]: ~0.1 µg/mL; titer (antigen binding) [4]: > 64 reciprocal dilution; Kd [5]: 0.05 pM |
| B13 | 20.8 | – | – |

Source: patent US20090240038A1 (Amgen, published 2009)
